Reference: patent US10745460B2, “Peptides and combination of peptides for use in immunotherapy against various tumors” (Immatics Biotechnologies GmbH, priority 2015, dated 2020)

What follows are substances tested against HLA-A*02:01 (Homo sapiens, UniProt P04439, D140Y/D185E/D98H/E176V/E277Q/G131W/G231S/I119V/I121R/I166T/I218V/L300P/L318F/N151K/N90K/P208A/P217A/Q86G/Q94H/R138H/R169H/T345S) (assay: MHC binding assay: UV-ligand exchange with β2m ELISA (peptide exchange yield)). Settings: binding to HLA-A*02:01 evaluated by peptide exchange yield (UV-ligand exchange, β2m ELISA).
Description: Candidate peptides for T cell based therapies according to the present invention were further tested for their MHC binding capacity (affinity). The individual peptide-MHC complexes were produced by UV-ligand exchange, where a UV-sensitive peptide is cleaved upon UV-irradiation, and exchanged with the peptide of interest as analyzed. Only peptide candidates that can effectively bind and stabilize the peptide-receptive MHC molecules prevent dissociation of the MHC complexes. To determine the yield of the exchange reaction, an ELISA was performed based on the detection of the light chain (β2m) of stabilized MHC complexes. The assay was performed as generally described in Rodenko et al. (Rodenko et al., 2006).
96 well MAXISorp plates (NUNC) were coated over night with 2 ug/ml streptavidin in PBS at room temperature, washed 4× and blocked for 1 h at 37° C. in 2% BSA containing blocking buffer. Refolded HLA-A*02:01/MLA-001 monomers served as standards, covering the range of 15-500 ng/ml. Peptide-MHC monomers of the UV-exchange reaction were diluted 100 fold in blocking buffer. Samples were incubated for 1 h at 37° C., washed four times, incubated with 2 ug/ml HRP conjugated anti-β2m for 1 h at 37° C., washed again and detected with TMB solution that is stopped with […]. Absorption was measured at 450 nm. Candidate peptides that show a high exchange yield (preferably higher than 50%, most preferred higher than 75%) are generally preferred for a generation and production of antibodies or fragments thereof, and/or T cell receptors or fragments thereof, as they show sufficient avidity to the MHC molecules and prevent dissociation of the MHC complexes.
For “84 (FLLEREQLL; listed as Homo sapiens) [compound 84]”, the Peptide exchange was “++++ (≥75% = ++++)”.
In the case of “85 (KLLDKPEQFL; listed as Homo sapiens) [compound 85]”, the Peptide exchange is reported as “++ (≥20% = ++)”.
For “86 (SLFSNIESV; listed as Homo sapiens) [compound 86]”, the Peptide exchange was “+++ (≥50 = +++)”.
For “87 (KLLSLLEEA; listed as Homo sapiens) [compound 87]”, the Peptide exchange was “+++ (≥50 = +++)”.
With “88 (LLLPLELSLA; listed as Homo sapiens) [compound 88]” the Peptide exchange was “+++ (≥50 = +++)”.
With “89 (SLAETIFIV; listed as Homo sapiens) [compound 89]” the Peptide exchange was “+++ (≥50 = +++)”.
In the case of “90 (AILNVDEKNQV; listed as Homo sapiens) [compound 90]”, the Peptide exchange is reported as “++ (≥20% = ++)”.
With “91 (LLPSIFLMV; listed as Homo sapiens) [compound 91]” the Peptide exchange was “++ (≥20% = ++)”.
With “92 (RLFEEVLGV; listed as Homo sapiens) [compound 92]” the Peptide exchange was “++++ (≥75% = ++++)”.
With “93 (RLYGYFHDA; listed as Homo sapiens) [compound 93]” the Peptide exchange was “++ (≥20% = ++)”.
For “94 (YLDEVAFML; listed as Homo sapiens) [compound 94]”, the Peptide exchange was “+++ (≥50 = +++)”.
For “95 (KLIDEDEPLFL; listed as Homo sapiens) [compound 95]”, the Peptide exchange was “+++ (≥50 = +++)”.
For “96 (ALDTTRHEL; listed as Homo sapiens) [compound 96]”, the Peptide exchange was “++ (≥20% = ++)”.
In the case of “97 (KLFEKSTGL; listed as Homo sapiens) [compound 97]”, the Peptide exchange is reported as “+++ (≥50 = +++)”.
In the case of “98 (FVQEKIPEL; listed as Homo sapiens) [compound 98]”, the Peptide exchange is reported as “+++ (≥50 = +++)”.
With “99 (TLFGIQLTEA; listed as Homo sapiens) [compound 99]” the Peptide exchange was “+++ (≥50 = +++)”.
“100 (ALQSFEFRV; listed as Homo sapiens) [compound 100]” was tested, and the Peptide exchange was “+++ (≥50 = +++)”.
With “101 (SLLEVNEASSV; listed as Homo sapiens) [compound 101]” the Peptide exchange was “+++ (≥50 = +++)”.
With “102 (GLYPVTLVGV; listed as Homo sapiens) [compound 102]” the Peptide exchange was “+++ (≥50 = +++)”.
For “103 (YLADTVQKL; listed as Homo sapiens) [compound 103]”, the Peptide exchange was “++ (≥20% = ++)”.
For “105 (AMLASQTEA; listed as Homo sapiens) [compound 105]”, the Peptide exchange was “++ (≥20% = ++)”.
For “106 (VLLGSVVIFA; listed as Homo sapiens) [compound 106]”, the Peptide exchange was “++ (≥20% = ++)”.
For “107 (RVLPGQAVTGV; listed as Homo sapiens) [compound 107]”, the Peptide exchange was “++ (≥20% = ++)”.
In the case of “108 (FIANLPPELKA; listed as Homo sapiens) [compound 108]”, the Peptide exchange is reported as “+++ (≥50 = +++)”.
“109 (ILGSFELQL; listed as Homo sapiens) [compound 109]” was tested, and the Peptide exchange was “+++ (≥50 = +++)”.
With “110 (QIQGQVSEV; listed as Homo sapiens) [compound 110]” the Peptide exchange was “++ (≥20% = ++)”.
With “111 (AQLEGKLVSI; listed as Homo sapiens) [compound 111]” the Peptide exchange was “+++ (≥50 = +++)”.
With “112 (ILAQDVAQL; listed as Homo sapiens) [compound 112]” the Peptide exchange was “+++ (≥50 = +++)”.
With “113 (FLFLKEVKV; listed as Homo sapiens) [compound 113]” the Peptide exchange was “++ (≥20% = ++)”.
In the case of “114 (LLFPSDVQTL; listed as Homo sapiens) [compound 114]”, the Peptide exchange is reported as “++ (≥20% = ++)”.
“115 (ILHGEVNKV; listed as Homo sapiens) [compound 115]” was tested, and the Peptide exchange was “++ (≥20% = ++)”.
“116 (ALLSSVAEA; listed as Homo sapiens) [compound 116]” was tested, and the Peptide exchange was “++ (≥20% = ++)”.
In the case of “117 (TLLEGISRA; listed as Homo sapiens) [compound 117]”, the Peptide exchange is reported as “++ (≥20% = ++)”.
With “119 (SLIEESEEL; listed as Homo sapiens) [compound 119]” the Peptide exchange was “++ (≥20% = ++)”.
With “121 (ALYVQAPTV; listed as Homo sapiens) [compound 121]” the Peptide exchange was “++ (≥20% = ++)”.
For “122 (SIIDTELKV; listed as Homo sapiens) [compound 122]”, the Peptide exchange was “+++ (≥50 = +++)”.
For “123 (QTAPEEAFIKL; listed as Homo sapiens) [compound 123]”, the Peptide exchange was “+ (≥10% = +)”.
“124 (ALLLRLFTI; listed as Homo sapiens) [compound 124]” was tested, and the Peptide exchange was “++ (≥20% = ++)”.
For “125 (AALEVLAEV; listed as Homo sapiens) [compound 125]”, the Peptide exchange was “+++ (≥50 = +++)”.
In the case of “126 (QLREAFEQL; listed as Homo sapiens) [compound 126]”, the Peptide exchange is reported as “+++ (≥50 = +++)”.
With “128 (SILTNISEV; listed as Homo sapiens) [compound 128]” the Peptide exchange was “++ (≥20% = ++)”.
With “129 (KMASKVTQV; listed as Homo sapiens) [compound 129]” the Peptide exchange was “++ (≥20% = ++)”.
In the case of “130 (QLYGSAITL; listed as Homo sapiens) [compound 130]”, the Peptide exchange is reported as “+++ (≥50 = +++)”.
“131 (SLYPHFTLL; listed as Homo sapiens) [compound 131]” was tested, and the Peptide exchange was “+++ (≥50 = +++)”.
For “132 (ALLNNVIEV; listed as Homo sapiens) [compound 132]”, the Peptide exchange was “+++ (≥50 = +++)”.
In the case of “133 (FLDGRPLTL; listed as Homo sapiens) [compound 133]”, the Peptide exchange is reported as “++ (≥20% = ++)”.
“134 (SLYKSFLQL; listed as Homo sapiens) [compound 134]” was tested, and the Peptide exchange was “++ (≥20% = ++)”.
“136 (LLWDAPAKC; listed as Homo sapiens) [compound 136]” was tested, and the Peptide exchange was “+++ (≥50 = +++)”.
“137 (KLIYKDLVSV; listed as Homo sapiens) [compound 137]” was tested, and the Peptide exchange was “++ (≥20% = ++)”.
With “138 (GIINKLVTV; listed as Homo sapiens) [compound 138]” the Peptide exchange was “++ (≥20% = ++)”.
For “139 (IILENIQSL; listed as Homo sapiens) [compound 139]”, the Peptide exchange was “+++ (≥50 = +++)”.
“140 (FLDSQITTV; listed as Homo sapiens) [compound 140]” was tested, and the Peptide exchange was “+++ (≥50 = +++)”.
For “141 (NIDINNNEL; listed as Homo sapiens) [compound 141]”, the Peptide exchange was “++ (≥20% = ++)”.
In the case of “142 (LLDAAHASI; listed as Homo sapiens) [compound 142]”, the Peptide exchange is reported as “++ (≥20% = ++)”.
For “143 (MLWESIMRV; listed as Homo sapiens) [compound 143]”, the Peptide exchange was “+++ (≥50 = +++)”.
With “144 (FLISQTPLL; listed as Homo sapiens) [compound 144]” the Peptide exchange was “+++ (≥50 = +++)”.
In the case of “145 (ALEEKLENV; listed as Homo sapiens) [compound 145]”, the Peptide exchange is reported as “+++ (≥50 = +++)”.
With “146 (VVAAHLAGA; listed as Homo sapiens) [compound 146]” the Peptide exchange was “++ (≥20% = ++)”.
With “147 (GLLSALENV; listed as Homo sapiens) [compound 147]” the Peptide exchange was “+++ (≥50 = +++)”.
“148 (YLILSSHQL; listed as Homo sapiens) [compound 148]” was tested, and the Peptide exchange was “+++ (≥50 = +++)”.
